{"source": "paper doi:10.1101/2025.10.01.679806", "about": "(bioRxiv, 2025)", "proteins": {"B1": {"name": "Bpa 45-153 (domain or fragment)", "chain": "AKVMRIGTMIKQLLEEVRAAPLDEASRNRLRDIHATSIRELEDGLAPELREELDRLTLPFNEDAVPSDAELRIAQAQLVGWLEGLFHGIQTALFAQQMAARAQLQQMRQ"}}, "molecular_target": "the molecule itself", "test": "methyl-TROSY NMR", "data": [{"protein": "B1", "values": [{"measurement": "stoichiometry N", "result": 4}]}]}
